Substrate in the data set: Cc1cc(=O)oc2cc(NC(=O)[C@H](CCCNC(=N)N)NC(=O)CNC(=O)[C@H](CCC(N)=O)NC(=O)OC(C)(C)C)ccc12
Nature of the data set: Substrate KM for protease screen, FXII. The following applies: other: FXII. Type of data set: biochemical. On the procedure:
Crude macrocyclic libraries (4 mM DMSO stocks in 384-well LDV plates were transferred into 1536-well microtiter OptiPlates via ADE. Applied buffered solutions were prepared by filtration through PTFE syringe filters (0.22 μm) and assays were initiated by addition of protease (4.41 μl/well) in appropriate buffer (see list below) supplemented with bovine serum albumin (BSA; 0.1% w/v) and dispensed using a CERTUS automated liquid handler. Plates were incubated for 10 min at ambient temperature before fluorogenic substrate in appropriate buffer (4.5 μl) was added using a CERTUS automated liquid handler. Plates were centrifugated (800 g, 2 min) and fluorescence intensity was measured using a PHERAstar plate reader (excitation 384 nm, emission 440 nm) in time increments of 150 s over 15 min. Slopes of fluorescence increase (m) were calculated with Microsoft Excel (vers. 16.56). Negative controls were prepared without macrocycle. An average of 12 negative controls was used to calculate residual activities using Equation I below: […]
where [S]0 is the initial substrate concentration and KM is the Michaelis-Menten constant^12 for the enzyme and substrate.

Broadly, the Km is the substrate concentration at which the rate is half of its maximum.

B1: FXII (Homo sapiens) (protein)
chain: VVGGLVALRGAHPYIAALYWGHSFCAGSLIAPCWVLTAAHCLQDRPAPEDLTVVLGQERRNHSCEPCQTLAVRSYRLHEAFSPVSYQHDLALLRLQEDADGSCALLSPYVQPVCLPSGAARPSETTLCQVAGWGHQFEGAEEYASFLQEAQVPFLSLERCSAPDVHGSSILPGMLCAGFLEGGTDACQGDSGGPLVCEDQAAERRLTLQGIISWGSGCGDRNKPGVYTDVAYYLAWIREHTVS
Turning to B1, the Km was found to be 260 ± 40 µM.

These data come from US20240279845A1, “METHOD FOR PREPARING A LIBRARY OF PEPTIDES OR A PEPTIDE” (ECOLE POLYTECHNIQUE FEDERALE DE LAUSANNE (EPFL), priority 2021, published 2024).
